The term EC50 (read off the curve) denotes the concentration giving half of the maximal effect.

“And” between values parts separate entries of the source, which are not always exact repeats. Equal values may be shown once.

These results are taken from patent US20150158947A1 (COMPUGEN, published 2015).

The target in assay [1] is T1, human C1ORF32 protein (SEQ ID NO: 1) (human, UniProt Q71H61 21-234).
T1 construct: Stained on cells in flow cytometry and IHC, and probed in whole-cell lysates in Western blots; also called ILDR2; short isoform of human C1ORF32
T1 sequence: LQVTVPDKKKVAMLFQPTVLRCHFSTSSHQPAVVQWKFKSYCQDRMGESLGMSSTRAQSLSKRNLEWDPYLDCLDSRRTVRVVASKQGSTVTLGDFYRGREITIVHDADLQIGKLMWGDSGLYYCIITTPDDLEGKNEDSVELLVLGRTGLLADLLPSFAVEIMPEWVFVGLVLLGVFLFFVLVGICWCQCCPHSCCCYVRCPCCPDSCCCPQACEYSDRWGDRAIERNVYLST
In words: flow cytometry on HEK293T cells expressing human C1ORF32 untagged (SEQ ID NO: 1), antibody 20 ug/ml, anti mouse DyLight 549 secondary. Here is the method:
(§1) FIG. 5A presents empty vector transfected cells; FIG. 5B presents human-C1ORF32 transfected cells (SEQ ID NO:1), FIG. 5C presents human-C1ORF32-HA tagged transfected cells(SEQ ID NO: 22); FIG. 5D presents chimeric mouse-human C1ORF32 transfected cells (SEQ ID NO: 8); FIG. 5E presents mouse C1ORF32 transfected cells (SEQ ID NO: 21).
(§2) Flow Cytometry analysis was performed to verify the mAbs binding to native cell surfaced C1ORF32 protein (SEQ ID NO: 1) in stable transfected cells described above. […] Anti-Cephalosporin served as negative control (SLRC, CH2025P). Recombinant HEK293T cells expressing C1ORF32 proteins, i.e. human C1ORF32 (SEQ ID NO:1), chimeric human-mouse C1ORF32 (SEQ ID NO:8) and mouse C1ORF32—Flag tagged (SEQ ID NO:21) were stained with anti C1ORF32 antibodies or anti-Cephalosporin followed by Donkey Anti Mouse-DyLight 549 conjugated secondary Ab (Jackson 715-506-150) as described in Example 6, herein. Fluorescent signal was observed.
For orientation: In flow cytometry, cells or beads pass a laser one at a time.

The target of assay [2] is T2, C1ORF32-ECD-mouse IgG2a-fused protein (SEQ ID NO: 4) (human C1ORF32 ECD, mouse IgG2a Fc).
T2 construct: Purified recombinant fusion protein; also called C1ORF32-ECD-mouse IgG2a fusion protein; recombinant ECD-mIgG2a fusion protein
T2 chain: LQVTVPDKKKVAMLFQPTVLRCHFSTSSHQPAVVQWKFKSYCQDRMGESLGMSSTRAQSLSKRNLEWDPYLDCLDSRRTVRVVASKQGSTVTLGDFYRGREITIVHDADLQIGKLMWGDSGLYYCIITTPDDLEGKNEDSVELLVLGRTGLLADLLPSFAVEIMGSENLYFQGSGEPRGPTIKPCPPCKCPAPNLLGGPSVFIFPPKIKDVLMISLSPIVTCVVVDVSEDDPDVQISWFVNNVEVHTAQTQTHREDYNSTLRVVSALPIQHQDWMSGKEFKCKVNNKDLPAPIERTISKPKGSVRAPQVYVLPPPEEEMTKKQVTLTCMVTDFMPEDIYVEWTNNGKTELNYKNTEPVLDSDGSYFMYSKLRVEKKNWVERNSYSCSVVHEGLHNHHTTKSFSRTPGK
In words: hybridoma binding screen by ELISA on ECD-mIgG2a fusion protein (SEQ ID NO: 4) or on HEK-293T cells over expressing C1ORF32. An excerpt:
Three positive clones were further processed for subcloning in order to establish stable hybridoma clones. Hybridomas were stabilized, subcloned and processed for antibody production and purification.

Assay [3] concerns the target T3, human C1ORF32-HA tagged protein (SEQ ID NO: 22) (human).
T3 chain: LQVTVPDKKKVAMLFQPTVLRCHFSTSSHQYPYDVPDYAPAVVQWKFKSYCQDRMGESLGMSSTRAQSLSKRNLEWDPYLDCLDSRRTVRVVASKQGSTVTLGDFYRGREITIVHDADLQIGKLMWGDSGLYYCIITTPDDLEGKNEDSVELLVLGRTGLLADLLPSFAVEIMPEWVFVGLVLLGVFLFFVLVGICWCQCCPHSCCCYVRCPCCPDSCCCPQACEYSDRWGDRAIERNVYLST
Kind of assay: flow cytometry on HEK293T cells expressing human C1ORF32-HA tagged (SEQ ID NO: 22), antibody 20 ug/ml, anti mouse DyLight 549 secondary. Here is the method: as §1, §2

Assay [4] has as its target T4, mouse C1ORF32-Flag tagged protein (SEQ ID NO: 21) (mouse, UniProt B5TVM2 36-661).
T4 sequence: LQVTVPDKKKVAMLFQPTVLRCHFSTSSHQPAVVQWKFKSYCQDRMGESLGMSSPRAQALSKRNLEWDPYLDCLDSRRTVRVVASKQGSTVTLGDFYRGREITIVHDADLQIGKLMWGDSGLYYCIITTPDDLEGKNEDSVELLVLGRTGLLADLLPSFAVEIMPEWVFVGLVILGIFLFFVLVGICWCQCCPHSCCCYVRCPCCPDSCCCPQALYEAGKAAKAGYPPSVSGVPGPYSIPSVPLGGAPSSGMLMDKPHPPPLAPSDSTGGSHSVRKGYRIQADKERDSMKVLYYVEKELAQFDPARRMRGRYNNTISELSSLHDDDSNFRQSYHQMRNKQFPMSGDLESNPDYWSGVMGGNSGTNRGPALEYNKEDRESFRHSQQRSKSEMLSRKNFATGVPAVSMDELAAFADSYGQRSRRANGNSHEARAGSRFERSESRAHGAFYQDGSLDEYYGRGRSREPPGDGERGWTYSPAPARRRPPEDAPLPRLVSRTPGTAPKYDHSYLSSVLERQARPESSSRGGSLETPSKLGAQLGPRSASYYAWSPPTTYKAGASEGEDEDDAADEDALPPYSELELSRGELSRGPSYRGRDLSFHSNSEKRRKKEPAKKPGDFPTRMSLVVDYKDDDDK
Kind of assay: flow cytometry on HEK293T cells expressing mouse C1ORF32-Flag (SEQ ID NO: 21; panel title: 293-C1ORF32 HA MOUSE CELLS), antibody 20 ug/ml, anti mouse DyLight 549 secondary. Here is the method: as §1, §2

Assay [5] deals with T5, chimeric mouse-human C1ORF32 (SEQ ID NO: 8) (chimeric mouse (ECD) / human (tail), UniProt B5TVM2 36-249).
T5 construct: also called mouse-human chimeric C1ORF32; chimeric human-mouse C1ORF32
T5 chain: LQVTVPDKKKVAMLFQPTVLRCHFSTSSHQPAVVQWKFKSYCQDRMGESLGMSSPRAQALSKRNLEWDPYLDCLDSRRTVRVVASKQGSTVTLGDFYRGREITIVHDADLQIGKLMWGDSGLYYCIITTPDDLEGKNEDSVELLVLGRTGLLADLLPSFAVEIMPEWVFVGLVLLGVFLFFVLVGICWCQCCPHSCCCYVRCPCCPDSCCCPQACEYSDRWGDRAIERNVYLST
In words: flow cytometry on HEK293T cells expressing chimeric mouse-human C1ORF32 (SEQ ID NO: 8; panel title: 293T-C1ORF32 HA MUTATED CELLS), antibody 20 ug/ml, anti mouse DyLight 549 secondary. Here is the method: as §1, §2

In assay [6] the target is T1, human C1ORF32 protein (SEQ ID NO: 1). In words: flow cytometry titration of 5159-1 on HEK293T cells expressing human C1ORF32. Here is the method:
(§3) The cells were washed once in FACS buffer, re-suspended in 25 ul of Alexa Fluor 647 conjugated F(ab′)2 fragment of goat anti mouse IgG (Jackson Immunoresearch cat#115-606-146) for 30 minutes at 4 degrees C. The cells were washed again in FACS buffer, re-suspended in 35 ul of FACS buffer and 35 ul of 4% paraformaldehyde and analysed on either a FACS Calibur or an Intellicyt HTFC. Data was analyzed by FlowJo, Excel and GraphPad Prism.

Assay [7] shares this target. Kind of assay: flow cytometry titration of 5159-1 on CHOK1 cells expressing human C1ORF32. Here is the method:
as §3

Assay [8] has as its target T6, C1ORF32-ECD-mIgG2a fusion protein (SEQ ID NO: 24).
T6 chain: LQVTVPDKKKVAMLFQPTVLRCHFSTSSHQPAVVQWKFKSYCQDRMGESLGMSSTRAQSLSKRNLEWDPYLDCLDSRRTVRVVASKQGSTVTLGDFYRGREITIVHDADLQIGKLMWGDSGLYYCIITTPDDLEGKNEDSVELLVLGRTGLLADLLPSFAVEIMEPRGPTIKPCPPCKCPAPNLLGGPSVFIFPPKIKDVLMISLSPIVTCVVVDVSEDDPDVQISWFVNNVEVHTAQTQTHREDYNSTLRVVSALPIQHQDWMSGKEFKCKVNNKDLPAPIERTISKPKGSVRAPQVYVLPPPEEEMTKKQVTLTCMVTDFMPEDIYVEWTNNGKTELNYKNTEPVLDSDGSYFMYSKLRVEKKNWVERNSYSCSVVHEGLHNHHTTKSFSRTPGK
In words: hybridoma binding screen by ELISA on fusion proteins SEQ ID NO: 23 and SEQ ID NO: 24 or on HEK293T cells over expressing C1ORF32. Here is the method:
(§4) Binding screening was performed by ELISA using fusion proteins C1ORF32-ECD-hIgG1 (SEQ ID NO: 23) and C1ORF32-ECD-mIgG2a (SEQ ID NO: 24) or stable pool of HEK293T cells over expressing C1ORF32 described in section “Generation of stable pools expressing C1ORF32 protein” herein. […] Hybridomas were stabilized, subcloned and processed for antibody production and purification.

For assay [9], the target named is C1ORF32-ECD-hIgG1 fusion protein (SEQ ID NO: 23). The description is as above. Here is the method:
as §4

Assay [10] has as its target T1, human C1ORF32 protein (SEQ ID NO: 1). Kind of assay: cell-based or functional assay.

B1: anti C1ORF32 monoclonal antibody 5159-2 (antibody, V domains shown)
VH: QVTLKESDPGILQPSQTLSLTCSFSGFSLSTSGMGVGWIRQPSGKGLEWLAHIWWDDVKRYNSALKNRLTISKDTSSSQVFLKIANVDTADTATYYCARIARHFFDYWGQGTTLTVSS
VL: DIKMTQSPSSMYASLGERVTITCKASQDIHGYLSWFHQKPVKSPKTLIYRANRLIDGVPSRFSGSGSGQDYFLTISSLEYEDMGIYYCLQYDEFPWTFGGGTKLEIK
notes: Murine IgG1 k from a hybridoma
Turning to B1, the binding result in assay [1], in [2], in assay [3], in [4] and in [5] was “binds” throughout.

B2: anti C1ORF32 monoclonal antibody 5159-1 (antibody, V domains shown)
VH: QVTLKESGPGILQPSQTLNLTCSFSGFSLSSSYMGVGWIRQPSGKGLEWLAHIWWDDVKRYNPALKSRLTISKDISNNQVFLKIASVDTADSATYYCGRIDRHYFDYWGQGTILTVSS
VL: DIKMTQSPSSIYASLGERVTITCKASQDINGYLTWFQQKPGKSPKTLIYRANRLLDGVPSRFSGSGSGQDYSLTISSLDYEDMGIYYCLQYDEFPWTFGGGTKLEIK
notes: as for B1
For B2, the results for the “EC50 (read off the curve)” value in [6] and in assay [7] were about 0.8 µg/mL and about 1 µg/mL, respectively. Also, the binding result in assay [2], in assay [3] and in assay [5] was “binds” throughout.

B3: anti C1ORF32 monoclonal antibody 5166-9 (antibody, V domains shown)
VH: EVKMVESGGGLVQPGGSLKLSCATSGFTFSDYYMYWVRQTPEKRLEWVAYISNGGGSTYYPDTVKGRFTISRDNAKNTLYLQMSRLKSEDTAMYYCARQGYYYGSSPFAYWGQGTLVTVSA
VL: DIVMTQSHKFMSTSVGDRVSITCKASQDVSTAVAWYQQKPGQSPKLLIYSASYRYTGVPDRFTGSGSGTDFTFTISSVQAEDLAVYYCQQHYSTPYTFGGGTKLEIK
notes: Murine IgM k from a hybridoma
As to B3, in assay [8], the binding result is reported as “binds”. Also, in assay [9], the binding result is “binds”. In assay [10], the “CDC activity, EC50, on CHOK1 cells expressing C1ORF32 (CellTiter-Glo viability, rabbit complement, 1 hr)” value was 33 ng/ml and 0.2 nM; the “CDC activity, EC50, on HEK293T cells expressing C1ORF32 (CellTiter-Glo viability, rabbit complement, 1 hr)” value is 1.8 ng/ml and 0.01 nM.

B4: anti C1ORF32 monoclonal antibody 5166-2 (antibody, V domains shown)
VH: QIQLVQSGPELKKPGETVKISCKASAYTFTDYSMHWVKQAPGKGLKWMGWINTETGEPTYAGDFKGRFAFSLETSASTAYLQINNLKNEDTATYFCVRAGYYDYFDYWGQGTTLTVSS
VL: DIVMTQSHKFMSTSVGDRVSITCKASQDVVTAVAWYQQKPGQSPKLLIYWASNRHTGVPDRFTGSGSGTDFTLTITNVQSEDLADYFCQQYSSYPLTFGGGTKLEIK
notes: as for B1
B4: the binding result in [8] and in assay [9] was “binds” throughout.
